Assay results as given in publication PMC5866549.
“And” between values parts separate entries of the source, which are not always exact repeats. Equal values may be shown once.

Target: mucin (purified mucins)
Assay: AFM force spectroscopy

modal adhesion force: 105 pN
modal adhesion force (bimodal): 72 pN and 120 pN
Substance: SRRP_(53608)-BR, binding region of the serine-rich repeat protein from Lactobacillus reuteri ATCC 53608 (domain or fragment)
